According to patent US20090099029A1, “Methods and substrates for conducting assays” (Invitrogen Corporation, priority 2005, published 2009):

Test system: kinases of Table 6 on Myelin Basic Protein (MBP)
Experiment: Kinase assay using MBP substrate, ProQ Diamond stain (Table 6)
Type: biochemical
Settings: kinase printed on MBP-coated slide; 20 uM ATP, 30° C.; ProQ Diamond Microarray Stain; graded Strong/Weak/Negative
Description: In this illustrative example, four-well slides were designed with a hydrophobic mask surrounding 4-wells of aldehyde- or epoxy-coated glass (smooth or ES grade; Erie Scientific (Portsmouth, N.H.)). […] Bovine, dephosphorylated, Myelin Basic Protein (MBP) was purchased from Upstate Biotechnology (#13-110). MBP was diluted to 1 mg/ml in PBS, applied to the slide surface, covered with a coverslip, and left overnight at 4° C. to coat the slide with the MBP. Slides were washed 3 times with water and spun dry before printing.
Kinases were purchased from Panvera (Invitrogen, Carlsbad, Calif.), diluted in printing buffer (50 mM Tris pH 7.5, 25% glyercol, 0.05% TritonX-100, 2 mM DTT) and deposited using a GeneMachine OmniGrid100. Slides were stored at −20° C.
Reactions were performed following removal of the slide from the freezer. Reaction buffer (20 mM HEPES pH 7.5, 4 mM MgCl2, 2 mM DTT, 20 uM ATP, 5% DMSO) was added with or without inhibitor, a coverslip applied, and the slide placed at 30° C. for the appropriate reaction time. The slide was washed with water to stop the reaction (3 times) and spun dry. ProQ Diamond Microarray Stain (Invitrogen #P33706) was applied, covered with a coverslip, and the slide was incubated in the dark at room temperature for 30 minutes. The slide was destained and washed three times with water, and spun dry.

Molecule | MBP Kinase Activity
EPHA5 (protein, left off: a dimerising Fc or GST) SGSCCECGCGRASSLCAVAHPSLIWRCGYSKAKQDPEEEKMHFHNGHIKLPGVRTYIDPHTYEDPNQAVHEFAKEIEASCITIERVIGAGEFGEVCSGRLKLPGKRELPVAIKTLKVGYTEKQRRDFLGEASIMGQFDHPNIIHLEGVVTKSKPVMIVTEYMENGSLDTFLKKNDGQFTVIQLVGMLRGISAGMKYLSDMGYVHRDLAARNILINSNLVCKVSDFGLSRVLEDDPEAAYTTRGGKIPIRWTAPEAIAFRKFTSASDVWSYGIVMWEVVSYGERPYWEMTNQDVIKAVEEGYRLPSPMDCPAALYQLMLDCWQKERNSRPKFDEIVNMLDKLIRNPSSLKTLVNASCRVSNLLAEHSPLGSGAYRSVGEWLEAIKMGRYTEIFMENGYSSMDAVAQVTLEDLRRLGVTLVGHQKKIMNSLQEMKVQLVNGMVPL | Negative
EPHA4 (protein, left off: a dimerising Fc or GST) SRRRSKYSKAKQEADEEKHLNQGVRTYVDPFTYEDPNQAVREFAKEIDASCIKIEKVIGVGEFGEVCSGRLKVPGKREICVAIKTLKAGYTDKQRRDFLSEASIMGQFDHPNIIHLEGVVTKCKPVMIITEYMENGSLDAFLRKNDGRFTVIQLVGMLRGIGSGMKYLSDMSYVHRDLAARNILVNSNLVCKVSDFGMSRVLEDDPEAAYTTRGGKIPIRWTAPEAIAYRKFTSASDVWSYGIVMWEVMSYGERPYWDMSNQDVIKAIEEGYRLPPPMDCPIALHQLMLDCWQKERSDRPKFGQIVNMLDKLIRNPNSLKRTGTESSRPNTALLDPSSPEFSAVVSVGDWLQAIKMDRYKDNFTAAGYTTLEAVVHVNQEDLARIGITAITHQNKILSSVQAMRTQMQQMHGRMVPV | Strong
MAP3K5(ASK1) (protein, left off: a dimerising Fc or GST) MSTEADEGITFSVPPFAPSGFCTIPEGGICRRGGAAAVGEGEEHQLPPPPPGSFWNVESAAAPGIGCPAATSSSSATRGRGSSVGGGSRRTTVAYVINEASQGQLVVAESEALQSLREACETVGATLETLHFGKLDFGETTVLDRFYNADIAVVEMSDAFRQPSLFYHLGVRESFSMANNIILYCDTNSDSLQSLKEIICQKNTMCTGNYTFVPYMITPHNKVYCCDSSFMKGLTELMQPNFELLLGPICLPLVDRFIQLLKVAQASSSQYFRESILNDIRKARNLYTGKELAAELARIRQRVDNIEVLTADIVINLLLSYRDIQDYDSIVKLVETLEKLPTFDLASHHHVKFHYAFALNRRNLPGDRAKALDIMIPMVQSEGQVASDMYCLVGRIYKDMFLDSNFTDTESRDHGASWFKKAFESEPTLQSGINYAVLLLAAGHQFESSFELRKVGVKLSSLLGKKGNLEKLQSYWEVGFFLGASVLANDHMRVIQASEKLFKLKTPAWYLKSIVETILIYKHFVKLTTEQPVAKQELVDFWMDFLVEATKTDVTVVRFPVLILEPTKIYQPSYLSINNEVEEKTISIWHVLPDDKKGIHEWNFSASSVRGVSISKFEERCCFLYVLHNSDDFQIYFCTELHCKKFFEMVNTITEEKGRSTEEGDCESDLLEYDYEYDENGDRVVLGKGTYGIVYAGRDLSNQVRIAIKEIPERDSRYSQPLHEEIALHKHLKHKNIVQYLGSFSENGFIKIFMEQVPGGSLSALLRSKWGPLKDNEQTIGFYTKQILEGLKYLHDNQIVHRDIKGDNVLINTYSGVLKISDFGTSKRLAGINPCTETFTGTLQYMAPEIIDKGPRGYGKAADIWSLGCTIIEMATGKPPFYELGEPQAAMFKVGMFKVHPEIPESMSAEAKAFILKCFEPDPDKRACANDLLVDEFLKVSSKKKKTQPKLSALSAGSNEYLRSISLPVPVLVEDTSSSSEYGSVSPDTELKVDPFSFKTRAKSCGERDVKGIRTLFLGIPDENFEDHSAPPSPEEKDSGFFMLRKDSERRATLHRILTEDQDKIVRNLMESLAQGAEEPKLKWEHITTLIASLREFVRSTDRKIIATTLSKLKLELDFDSHGISQVQVVLFGFQDAVNKVLRNHNIKPHWMFALDSIIRKAVQTAITILVPELRPHFSLASESDTADQEDLDVEDDHEEQPSNQTVRRPQAVIEDAVATSGVSTLSSTVSHDSQSAHRSLNVQLGRMKIETNRLLEELVRKEKELQALLHRAIEEKDQEIKHLKLKSQPIEIPELPVFHLNSSGTNTEDSELTDWLRVNGADEDTISRFLAEDYTLLDVLYYVTRDDLKCLRLRGGMLCTLWKAIIDFRNKQT | Weak
MAPK13(p38delta) (protein, left off: small tags and cut ends) MSLIRKKGFYKQDVNKTAWELPKTYVSPTHVGSGAYGSVCSAIDKRSGEKVAIKKLSRPFQSEIFAKRAYRELLLLKHMQHENVIGLLDVFTPASSLRNFYDFYLVMPFMQTDLQKIMGMEFSEEKIQYLVYQMLKGLKYIHSAGVVHRDLKPGNLAVNEDCELKILDFGLARHADAEMTGYVVTRWYRAPEVILSWMHYNQTVDIWSVGCIMAEMLTGKTLFKGKDYLDQLTQILKVTGVPGTEFVQKLNDKAAKSYIQSLPQTPRKDFTQLFPRASPQAADLLEKMLELDVDKRLTAAQALTHPFFEPFRDPEEETEAQQPFDDSLEHEKLTVDEWKQHIYKEIVNFSPIARKDSRRRSGMKL | Weak
MAPK12(p38gamma) (protein, left off: small tags and cut ends) MSSPPPARSGFYRQEVTKTAWEVRAVYRDLQPVGSGAYGAVCSAVDGRTGAKVAIKKLYRPFQSELFAKRAYRELRLLKHMRHENVIGLLDVFTPDETLDDFTDFYLVMPFMGTDLGKLMKHEKLGEDRIQFLVYQMLKGLRYIHAAGIIHRDLKPGNLAVNEDCELKILDFGLARQADSEMTGYVVTRWYRAPEVILNWMRYTQTVDIWSVGCIMAEMITGKTLFKGSDHLDQLKEIMKVTGTPPAEFVQRLQSDEAKNYMKGLPELEKKDFASILTNASPLAVNLLEKMLVLDAEQRVTAGEALAHPYFESLHDTEDEPQVQKYDDSFDDVDRTLDEWKRVTYKEVLSFKPPRQLGARVSKETPL | Strong
MAPK14(p38alpha) (protein, left off: a dimerising Fc or GST) MSQERPTFYRQELNKTIWEVPERYQNLSPVGSGAYGSVCAAFDTKTGLRVAVKKLSRPFQSIIHAKRTYRELRLLKHMKHENVIGLLDVFTPARSLEEFNDVYLVTHLMGADLNNIVKCQKLTDDHVQFLIYQILRGLKYIHSADIIHRDLKPSNLAVNEDCELKILDFGLARHTDDEMTGYVATRWYRAPEIMLNWMHYNQTVDIWSVGCIMAELLTGRTLFPGTDHINQLQQIMRLTGTPPAYLINRMPSHEARNYIQSLTQMPKMNFANVFIGANPLAVDLLEKMLVLDSDKRITAAQALAHAYFAQYHDPDDEPVADPYDQSFESRDLLIDEWKSLTYDEVISFVPPPLDQEEMES | Strong
MAP3K9(MLK1) (protein, left off: a dimerising Fc or GST) MEPSRALLGCLASAAAAAPPGEDGAGAGAEEEEEEEEEAAAAVGPGELGCDAPLPYWTAVFEYEAAGEDELTLRLGDVVEVLSKDSQVSGDEGWWTGQLNQRVGIFPSNYVTPRSAFSSRCQPGGEDPSCYPPIQLLEIDFAELTLEEIIGIGGFGKVYRAFWIGDEVAVKAARHDPDEDISQTIENVRQEAKLFAMLKHPNIIALRGVCLKEPNLCLVMEFARGGPLNRVLSGKRIPPDILVNWAVQIARGMNYLHDEAIVPIIHRDLKSSNILILQKVENGDLSNKILKITDFGLAREWHRTTKMSAAGTYAWMAPEVIRASMFSKGSDVWSYGVLLWELLTGEVPFRGIDGLAVAYGVAMNKLALPIPSTCPEPFAKLMEDCWNPDPHSRPSFTNILDQLTTIEESGFFEMPKDSFHCLQDNWKHEIQEMFDQLRAKEKELRTWEEELTRAALQQKNQEELLRRREQELAEREIDILERELNIIIHQLCQEKPRVKK | Strong
MAP4K4(HGK) (protein, left off: a dimerising Fc or GST) MANDSPAKSLVDIDLSSLRDPAGIFELVEVVGNGTYGQVYKGRHVKTGQLAAIKVMDVTEDEEEEIKLEINMLKKYSHHRNIATYYGAFIKKSPPGHDDQLWLVMEFCGAGSITDLVKNTKGNTLKEDWIAYISREILRGLAHLHIHHVIHRDIKGQNVLLTENAEVKLVDFGVSAQLDRTVGRRNTFIGTPYWMAPEVIACDENPDATYDYRSDLWSCGITAIEMAEGAPPLCDMHPMRALFLIPRNPPPRLKSKKWSKKFFSFIEGCLVKNYMQRPSTEQLLKHPFIRDQPNERQVRIQLKDHIDRTRKKRGEKDETEYEYSGSEE | Strong
MAPK11(p38B) (protein, left off: small tags and cut ends) MSGPRAGFYRQELNKTVWEVPQRLQGLRPVGSGAYGSVCSAYDARLRQKVAVKKLSRPFQSLIHARRTYRELRLLKHLKHENVIGLLDVFTPATSIEDFSEVYLVTTLMGADLNNIVKCQALSDEHVQFLVYQLLRGLKYIHSAGIIHRDLKPSNVAVNEDCELRILDFGLARQADEEMTGYVATRWYRAPEIMLNWMHYNQTVDIWSVGCIMAELLQGKALFPGSDYIDQLKRIMEVVGTPSPEVLAKISSEHARTYIQSLPPMPQKDLSSIFRGANPLAIDLLGRMLVLDSDQRVSAAEALAHAYFSQYHDPEDEPEAEPYDESVEAKERTLEEWKELTYQEVLSFKPPEPPKPPGSLEIEQ | Strong
